Measurements published in the supplement of paper PMC10567573.

B1: TRIM43 (parent)
chain: FCDMDKSLLCLLCSNSQEHGAHKH
B2: KLHL20 (parent)
chain: YQDMIYAVGGRDDTTELSSAERYN

Variants of: B1
Assay: protein stability index of a GFP-peptide fusion (GPS, HEK-293T) (PSI 1-6); higher = more stable
Details: c terminus: a fixed tail appended
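Also: lentivirally expressed fusions sorted by FACS into six bins by GFP to DsRed ratio, PSI derived from sequencing read proportions per bin multiplied by bin number.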

Protein stability index of substitutions, site by site:
K23: M 1.91 | A 2.06 | D 2.4 | H 2.13 | G 1.53 | S 2.25 | T 2.02 | P 2.06 | R 2.18 | Q 1.64 | L 1.63 | W 1.94 | C 1.82 | N 1.89 | Y 1.43 | V 2.06 | E 2.05 | F 1.82 | I 2.17
H22: L 1.61 | T 1.79 | M 1.48 | K 1.73 | Y 1.87 | R 1.84 | P 1.69 | V 1.7 | W 1.45 | Q 1.91 | S 1.73 | N 1.75
H24: A 1.72 | E 1.65 | F 1.43 | D 2.18 | R 1.86 | K 1.89 | P 1.69 | S 1.58 | Q 2.22 | N 2.26 | C 2.4 | I 1.7 | G 1.77 | Y 1.36 | T 1.66 | M 1.48 | L 1.53 | V 2.04 | W 1.84

Variants of: B2
Assay: as above
Details: c terminus: a fixed tail appended

Protein stability index: each site, then its substitutions
A7: C 2.17 | E 3.56 | D 3.34
Y6: R 3.37 | A 3.85 | M 2.98 | H 3.27 | L 2.88 | C 2.71 | T 3.94 | D 4.74 | I 3.08 | E 4.55 | K 3.43 | F 2.14 | Q 3.87 | G 3.77 | N 3.98 | V 3.01 | W 2.51 | S 3.88 | P 3.41
Q2: N 4.27 | K 4.2 | T 2.22 | C 2.02 | M 3.03 | S 3.61 | V 1.96 | A 2.3 | W 2.87 | L 2.85 | I 1.58 | D 4.86 | P 3.58 | H 2.83 | E 5.02 | G 3.28 | F 2.79 | Y 3.17 | R 3.6
M4: Y 2.77 | R 2.75 | Q 2.66 | C 2.68 | S 3.27 | F 1.84 | K 2.65 | W 2.85 | D 3.48 | H 2.55 | P 2.6 | V 3.02 | A 2.51 | N 3.12 | G 2.48 | I 2.4 | L 2.31 | E 3.68 | T 3.15
I5: V 2.53 | P 2.72 | K 3.39 | H 2.65 | E 3.98 | N 3.09 | T 3.17 | R 2.71 | L 2.61 | S 3.53 | F 1.79 | Q 4.11 | W 2.48 | G 3.14 | D 3.99 | M 2.77 | Y 2.21 | C 2.52 | A 2.28
Y1: S 4.89 | F 1.89 | C 4.21 | K 4.39 | G 4.66 | M 4.1 | T 4.58 | E 5.08 | D 5.33 | W 2.85 | V 4.5 | R 4.89 | A 4.78 | L 4.26 | N 4.96 | Q 4.75 | I 4.05 | H 4.5 | P 4.57
D3: K 2.79 | S 1.99 | A 1.7 | Y 1.77 | H 2.15 | Q 3.08 | M 1.81 | W 2.03 | I 2.26 | G 1.47 | R 2.83 | E 2.48 | P 3.4 | C 2.15 | L 1.81 | T 1.56 | F 1.88 | N 2.63 | V 1.86
